# Data: patent publication US10293027B2, “Methods for treating metabolic disorders using FGF” (Salk Institute for Biological Studies, priority 2010, dated 2019)
# “Also recorded” adds a separate entry of the source.
# B1: FGF-1: recombinant mouse FGF-1 (acidic fibroblast growth factor), a secreted protein that binds heparin and FGF receptors (protein, UniProt P61148 16-155, looked up)
# Fibroblast growth factor 1: FNLPLGNYKKPKLLYCSNGGHFLRILPDGTVDGTRDRSDQHIQLQLSAESAGEVYIKGTETGQYLAMDTEGLLYGSQTPNEECLFLERLEENHYNTYTSKKHAEKNWFVGLKKNGSCKRGPRTHYGQKAILFLPLPVSSD
# Columns and labels:
# ob/ob mice [1] = test: Chronic FGF-1 treatment for 36 days: glucose, food intake, body composition, serum lipids, liver (Examples 7-10); format: in vivo, mouse
# Description: Blood was collected by tail bleeding either in the ad libitum fed state or following overnight fasting. Free fatty acids (Wako), triglycerides (Thermo), and cholesterol (Thermo) were measured using enzymatic colorimetric methods following the manufacturer's instructions. Serum insulin levels were measured using an Ultra Sensitive Insulin ELISA kit (Crystal Chem). Serum adiponectin levels were measured by ELISA (Millipore). Plasma adipokine levels were measured using a Milliplex™ MAP kit (Millipore).
# Tissues were fixed in 4% phosphate-buffered formalin, embedded in paraffin, sectioned at 4 μm, and stained with hematoxylin and eosin according to standard procedures. For immunohistochemistry, tissues were deparaffinized in xylene and rehydrated. Slides were incubated with 5% normal donkey serum in PBS (+0.2% Triton-X100 and 1% BSA) for 30 min, and subsequently sections were incubated overnight with a 1:200 dilution of primary antibodies at 4° C. and using Alexa Fluor 488 or 595 as secondary antibodies for 2 hrs at RT.
# In Example 5, ob/ob male mice (8 wk old) were randomized into three groups and treated with daily subcutaneous (s.c.) injections of recombinant mouse FGF-1 (0.5 mg/kg in PBS), oral rosiglitazone (TZD, 5 mg/kg in 0.5% carboxymethyl cellulose), or vehicle. Blood glucose levels were measure in fed animals one hour after treatment. Total body composition analysis was performed using an EchoMRI-100™ (Echo Medical Systems, LLC).
# To investigate the metabolic effects of chronic FGF-1 treatment in ob/ob mice, eight weeks old male ob/ob mice were treated with vehicle or recombinant mouse FGF-1 (0.5 mg/kg/3 days, s.c.) for a period of 36 days. During this time, glucose levels, food intake, and body composition were monitored.
# ob/ob mice [2] = test: Glucose tolerance test after four weeks of FGF-1 administration; format: in vivo, mouse; settings: after four weeks of 0.5 mg/kg/3 days s.c.
# Description: (§1) Glucose tolerance tests (GTT) were conducted after overnight fasting. Mice were injected intraperitoneally (i.p.) with 1 g of glucose per/kg body weight, and blood glucose was monitored at 0, 15, 30, 60, 90, and 120 min using a OneTouch Ultra glucometer (Lifescan Inc). Insulin tolerance tests (ITT) were conducted after overnight fasting. Mice were injected i.p. with 0.5 U of insulin/kg body weight (Humulin R; Eli Lilly), and blood glucose was monitored at 0, 15, 30, 60, 90, and 120 min using a OneTouch Ultra glucometer (Lifescan Inc). Real-time metabolic analyses were conducted in an undisturbed room under 12 h/12 h light/dark cycles using a Comprehensive Lab Animal Monitoring System (Columbus Instruments).
# (§2) These tests were carried out as described above.
# ob/ob mice [3] = test: Insulin tolerance test after 4 weeks of chronic FGF-1 administration; format: in vivo, mouse; settings: after 4 weeks of chronic administration
# Description: as §1, §2
# ob/ob diabetic mice = test: Delivery method (s.c., i.p., i.v.) and FGF-1 blood glucose effects (Example 11); format: in vivo, mouse
# Description: FIG. 22. Assessment of delivery method on FGF-1 blood glucose effects.
# FIG. 23. Assessment of delivery method on duration of FGF-1 activity. Single subcutaneous (sc) or intravenous (iv) injection of FGF-1 (0.5 mg/kg) in ob/ob mice.
# To determine if the effects of FGF-1 depend on the route of administration, we tested blood glucose levels of ob/ob mice in response to 0.5 mg/kg body weight FGF-1 delivered s.c., i.p. and i.v. PBS injections were used as controls. […] We next compared i.v. and s.c. injections for duration of the glucose normalizing effect.
# [4] = tested on: db/db leptin receptor mutant diabetic mice; test: Single s.c. FGF-1 injection, blood glucose in db/db mice; format: in vivo, mouse; settings: single s.c. injection 0.5 mg/kg
# From the text: FIG. 24. FGF-1 effects in db/db mice. […] The db/db model is considered to represent a […] diabetes model than ob/ob.
# (§3) The ob/ob model is considered to represent a very severe diabetic disease. In order to investigate the effect of FGF-1 on less severe diabetic/metabolic disorder models, we tested blood glucose levels in db/db mice and diet induced obese mice.
# [5] = tested on: diet-induced obesity mice (C57BL/6); test: Single s.c. FGF-1 injection, blood glucose in DIO mice; format: in vivo, mouse; settings: single s.c. injection 0.5 mg/kg
# From the text: FIG. 25. FGF1 effects in DIO mice.
# as §3
# [6] = tested on: Glucose Transporter 1 (Glut1); test: Glut1 expression in 3T3-L1 adipocytes; format: cell-based, mouse
# Description: FIGS. 6A-6B. FGF-1 and rosiglitazone stimulation of Glut1 expression in 3T3-L1 adipocytes. 3T3-L1 adipocytes were treated with FGF-1 (+=50 ng/ml, ++=100 ng/ml), rosiglitazone (1 μM), or in combination. (A) mRNA (top) and protein (bottom) levels of Glucose Transporter 1 (Glut1); (B) mRNA (top) and protein (bottom) levels of Glucose Transporter 4 (Glut4).
# 3T3-L1 mouse pre-adipocytes were from American Type Culture Collection (ATCC, Rockville, Md.). Cells were maintained at sub-confluence in growth medium (GM) containing 10% calf serum in Dulbecco's modified Eagle's medium (DMEM) at 37° C. and 5% CO2. For standard adipocyte differentiation, cells were stimulated at 2 days post confluency (referred as day 0) with differentiation medium (DM) containing 10% fetal bovine serum (FBS), 5 μg/ml insulin, 1 μM dexamethasone, and […] 3-isobutyl-1-methylxanthine (IBMX) for 48 hours. […]
# Total RNA was isolated from mouse tissue and cells using TRIzol reagent (Invitrogen). cDNA was synthesized from 1 μg of DNase-treated total RNA using SuperScript II reverse transcriptase (Invitrogen). mRNA levels were quantified by QPCR with SYBR Green (Invitrogen). Samples were run in technical triplicates, and relative mRNA levels were calculated by using the standard curve methodology and normalized against 36B4 mRNA levels in the same samples.
# [7] = after the 36 day treatment period
molecule,measurement,setting,value
B1,blood glucose under chronic treatment,"ob/ob mice [1]; 0.5 mg/kg every third day s.c., 36 days",glucose levels are normalized by the first time point tested (day 2) and remain stable for the remainder of the test period; also recorded: completely normalized blood glucose
same,body weight / weight gain,ob/ob mice [1]; 0.5 mg/kg/3 days s.c.,remains lower than in untreated ob/ob mice; also recorded: reduced weight gain during the first week
same,food intake,ob/ob mice [1]; 0.5 mg/kg/3 days s.c.,"initially results in reduced food intake; also recorded: reduced food intake during the first 1-2 weeks of chronic administration, but after two weeks food intake returned to normal"
same,percent lean mass,ob/ob mice [1]; 0.5 mg/kg/3 days s.c.,significantly higher than in untreated mice; also recorded: increased lean mass as compared with control mice
same,total percent body fat,ob/ob mice [1]; 0.5 mg/kg/3 days s.c.,reduced percentage body fat; also recorded: reduced increase in percent body fat
same,hepatic glycogen,ob/ob mice [1]; [7],much higher; also recorded: increased levels of hepatic glycogen
same,hepatic steatosis (H&E staining of liver),ob/ob mice [1]; [7],"much less steatosis, and little if any inflammation; also recorded: Steatosis is dramatically reduced compared to control"
same,glucose tolerance (GTT),ob/ob mice [2],cleared glucose more effectively than untreated controls; also recorded: enhances glucose tolerance
same,insulin tolerance / insulin sensitivity (ITT),ob/ob mice [3],increased insulin sensitivity
same,"acute blood glucose effect by s.c., i.p. and i.v. delivery",ob/ob diabetic mice; 0.5 mg/kg,about the same for all three injection methods
same,time of stable glucose levels after intravenous administration,"ob/ob diabetic mice; 0.5 mg/kg i.v., duration of the test",at least 60 hours
same,"duration of glucose normalizing effect, iv compared to sc",ob/ob diabetic mice; single injection 0.5 mg/kg,persist longer when administered iv as compared to sc
same,blood glucose in db/db mice,[4],effective for reducing blood glucose levels in both systems; also recorded: normalizes blood glucose
same,blood glucose in diet-induced obesity mice,[5]; 0.5 mg/kg,effective for reducing blood glucose levels in both systems
same,blood glucose in diet-induced obesity mice,"[5]; listed as FGF1, 0.5 mg/kg",normalizes blood glucose
same,expression of GLUT1 in combination with rosiglitazone,"[6]; 3T3-L1 adipocytes, FGF-1 plus rosiglitazone (1 μM)",acts synergistically with rosiglitazone
same,expression of GLUT1,"[6]; mouse 3T3-L1 adipocytes, prolonged treatment, FGF-1 50 or 100 ng/ml",induces the expression of GLUT1
